The record followed here is paper PMC2363545.

The target of this experiment is IGF-II (insulin-like growth factor-II). As to the kind of experiment: SPR; BIAcore; who was immobilised, buffer, pH and temperature not stated (abstract P25).

Broadly, the Kd is the equilibrium constant for the complex coming apart. A higher Kd goes with a looser complex. A word on the koff: it is the rate constant with which the complex falls apart. The low end stands for slow dissociation, the high end for fast dissociation. One may read the kon as a measure of how fast the partners come together. Higher therefore signals faster complex formation. “IGF2R domains 11-12 (domain or fragment)” displayed a Kd of 134 nM, a koff of 0.0082 s⁻¹ and a kon of 61300 M⁻¹ s⁻¹.

“IGF2R domains 10-13 (domain or fragment)”: the Kd was 49.3 nM, the koff is 0.00808 s⁻¹ and the kon amounted to 164000 M⁻¹ s⁻¹.

With IGF2R domain 11 (domain or fragment), the Kd was 153 nM, the koff worked out at 0.0138 s⁻¹ and the kon came to 90000 M⁻¹ s⁻¹.

Substance “IGF2R domains 11-13 (domain or fragment)” returned a Kd of 42.6 nM, a koff of 0.00426 s⁻¹ and a kon of 100000 M⁻¹ s⁻¹.

In turn, “sIGF2R (domains 1-15), soluble insulin-like growth factor 2 receptor (from UniProt P11717 41-2304)” returned a Kd of 9.55 nM, a koff of 0.0113 s⁻¹ and a kon of 1.18e+06 M⁻¹ s⁻¹.

“IGF2R domains 10-12 (domain or fragment)” returned a Kd of 346 nM, a koff of 0.0086 s⁻¹ and a kon of 24800 M⁻¹ s⁻¹.
